Data published in patent publication US20230407373A1 (priority 2020, published 2023).
Like-named read-outs stand apart in the source and are kept apart here.

B1: RAVER1 (protein, UniProt Q8IY67 2-606, looked up)
Ribonucleoprotein PTB-binding …: AADVSVTHRPPLSPKSGAEVEAGDAAERRAPEEELPPLDPEEIRKRLEHTERQFRNRRKILIRGLPGDVTNQEVHDLLSDYELKYCFVDKYKGTAFVTLLNGEQAEAAINAFHQSRLRERELSVQLQPTDALLCVANLPPSLTQQQFEELVRPFGSLERCFLVYSERTGQSKGYGFAEYMKKDSAARAKSDLLGKPLGPRTLYVHWTDAGQLTPALLHSRCLCVDRLPPGFNDVDALCRALSAVHSPTFCQLACGQDGQLKGFAVLEYETAEMAEEAQQQADGLSLGGSHLRVSFCAPGPPGRSMLAALIAAQATALNRGKGLLPEPNILQLLNNLGPSASLQLLLNPLLHGSAGGKQGLLGAPPAMPLLNGPALSTALLQLALQTQGQKKPGILGDSPLGALQPGAQPANPLLGELPAGGGLPPELPPRRGKPPPLLPSVLGPAGGDREALGLGPPAAQLTPPPAPVGLRGSGLRGPLSHFYSGSPTSYFTSGLQAGLKQSHLSKAIGSSPLGSGEGLLGLSPGPNGHSHLLKVRAGGGDMQGWEAPAPQRPLTRPALPSVSRPHWAARNAALPTCCPRPSPAQKAAMWASTPRASAATTRTPT
B2: RRBP1: host protein, UniProt Q9P2E9 (protein, UniProt Q9P2E9 1-1410, looked up)
Ribosome-binding protein 1: MDIYDTQTLGVVVFGGFMVVSAIGIFLVSTFSMKETSYEEALANQRKEMAKTHHQKVEKKKKEKTVEKKGKTKKKEEKPNGKIPDHDPAPNVTVLLREPVRAPAVAVAPTPVQPPIIVAPVATVPAMPQEKLASSPKDKKKKEKKVAKVEPAVSSVVNSIQVLTSKAAILETAPKEVPMVVVPPVGAKGNTPATGTTQGKKAEGTQNQSKKAEGAPNQGRKAEGTPNQGKKTEGTPNQGKKAEGTPNQGKKAEGTPNQGKKAEGAQNQGKKVDTTPNQGKKVEGAPTQGRKAEGAQNQAKKVEGAQNQGKKAEGAQNQGKKGEGAQNQGKKAEGAQNQGKKAEGAQNQGKKAEGAQNQGKKAEGAQNQGKKAEGAQNQGKKAEGAQNQGKKVEGAQNQGKKAEGAQNQGKKAEGAQNQGKKAEGAQNQGKKAEGAQNQGKKAEGAQNQGKKAEGAQNQGKKAEGAQNQGKKVEGAQNQGKKAEGAQNQGKKAEGAQNQGKKAEGAQNQGQKGEGAQNQGKKTEGAQGKKAERSPNQGKKGEGAPIQGKKADSVANQGTKVEGITNQGKKAEGSPSEGKKAEGSPNQGKKADAAANQGKKTESASVQGRNTDVAQSPEAPKQEAPAKKKSGSKKKGEPGPPDADGPLYLPYKTLVSTVGSMVFNEGEAQRLIEILSEKAGIIQDTWHKATQKGDPVAILKRQLEEKEKLLATEQEDAAVAKSKLRELNKEMAAEKAKAAAGEAKVKKQLVAREQEITAVQARMQASYREHVKEVQQLQGKIRTLQEQLENGPNTQLARLQQENSILRDALNQATSQVESKQNAELAKLRQELSKVSKELVEKSEAVRQDEQQRKALEAKAAAFEKQVLQLQASHRESEEALQKRLDEVSRELCHTQSSHASLRADAEKAQEQQQQMAELHSKLQSSEAEVRSKCEELSGLHGQLQEARAENSQLTERIRSIEALLEAGQARDAQDVQASQAEADQQQTRLKELESQVSGLEKEAIELREAVEQQKVKNNDLREKNWKAMEALATAEQACKEKLLSLTQAKEESEKQLCLIEAQTMEALLALLPELSVLAQQNYTEWLQDLKEKGPTLLKHPPAPAEPSSDLASKLREAEETQSTLQAECDQYRSILAETEGMLRDLQKSVEEEEQVWRAKVGAAEEELQKSRVTVKHLEEIVEKLKGELESSDQVREHTSHLEAELEKHMAAASAECQNYAKEVAGLRQLLLESQSQLDAAKSEAQKQSDELALVRQQLSEMKSHVEDGDIAGAPASSPEAPPAEQDPVQLKTQLEWTEAILEDEQTQRQKLTAEFEEAQTSACRLQEELEKLRTAGPLESSETEEASQLKERLEKEKKLTSDLGRAATRLQELLKTTQEQLAREKDTVKKLQEQLEKAEDGSSSKEGTSV
B3: PDIA6: host protein, UniProt Q15084 (protein, UniProt Q15084 20-440, looked up)
Protein disulfide-isomerase A6: LYSSSDDVIELTPSNFNREVIQSDSLWLVEFYAPWCGHCQRLTPEWKKAATALKDVVKVGAVDADKHHSLGGQYGVQGFPTIKIFGSNKNRPEDYQGGRTGEAIVDAALSALRQLVKDRLGGRSGGYSSGKQGRSDSSSKKDVIELTDDSFDKNVLDSEDVWMVEFYAPWCGHCKNLEPEWAAAASEVKEQTKGKVKLAAVDATVNQVLASRYGIRGFPTIKIFQKGESPVDYDGGRTRSDIVSRALDLFSDNAPPPELLEIINEDIAKRTCEEHQLCVVAVLPHILDTGAAGRNSYLEVLLKLADKYKKKMWGWLWTEAGAQSELETALGIGGFGYPAMAAINARKMKFALLKGSFSEQGINEFLRELSFGRGSTAPVGGGAFPTIVEREPWDGRDGELPVEDDIDLSDVELDDLGKDEL
B4: SF3B2 (protein, UniProt Q13435 1-895, looked up)
Splicing factor 3B subunit 2: MATEHPEPPKAELQLPPPPPPGHYGAWAAQELQAKLAEIGAPIQGNREELVERLQSYTRQTGIVLNRPVLRGEDGDKAAPPPMSAQLPGIPMPPPPLGLPPLQPPPPPPPPPPGLGLGFPMAHPPNLGPPPPLRVGEPVALSEEERLKLAQQQAALLMQQEERAKQQGDHSLKEHELLEQQKRAAVLLEQERQQEIAKMGTPVPRPPQDMGQIGVRTPLGPRVAAPVGPVGPTPTVLPMGAPVPRPRGPPPPPGDENREMDDPSVGPKIPQALEKILQLKESRQEEMNSQQEEEEMETDARSSLGQSASETEEDTVSVSKKEKNRKRRNRKKKKKPQRVRGVSSESSGDREKDSTRSRGSDSPAADVEIEYVTEEPEIYEPNFIFFKRIFEAFKLTDDVKKEKEKEPEKLDKLENSAAPKKKGFEEEHKDSDDDSSDDEQEKKPEAPKLSKKKLRRMNRFTVAELKQLVARPDVVEMHDVTAQDPKLLVHLKATRNSVPVPRHWCFKRKYLQGKRGIEKPPFELPDFIKRTGIQEMREALQEKEEQKTMKSKMREKVRPKMGKIDIDYQKLHDAFFKWQTKPKLTIHGDLYYEGKEFETRLKEKKPGDLSDELRISLGMPVGPNAHKVPPPWLIAMQRYGPPPSYPNLKIPGLNSPIPESCSFGYHAGGWGKPPVDETGKPLYGDVFGTNAAEFQTKTEEEEIDRTPWGELEPSDEESSEEEEEEESDEDKPDETGFITPADSGLITPGGFSSVPAGMETPELIELRKKKIEEAMDGSETPQLFTVLPEKRTATVGGAMMGSTHIYDMSTVMSRKGPAPELQGVEVALAPEELELDPMAMTQKYEEHVREQQAQVEKEDFSDMVAEHAAKQKQKKRKAQPQDSRGGSKKYKEFKF

Columns and labels:
gRNA of HCoV-OC43 = assay type: binding; conditions: for target (spectral count, OC43 Probe I RNP capture) / background (spectral count, no-probe control): type n_48_v: 48 hours post-infection; for target (spectral count, OC43 Probe I RNP capture): infected cells, unweighted spectral count; for background (spectral count, no-probe control): no-probe control on infected cells; for target (spectral count) / background (spectral count): type g_36_m, 36 hpi, Probe I; for target (spectral count): HCoV-OC43-infected HCT-8 cells; for background (spectral count): uninfected-probe control
HCoV-OC43 gRNA and sgRNA = assay type: binding; conditions: for target (unweighted spectral count, OC43 Probe II) / background (unweighted spectral count, no-probe control): type n_48_v, 48 hpi; for target (unweighted spectral count, OC43 Probe II): OC43 Probe II capture on infected cells; for background (unweighted spectral count, no-probe control): no-probe control on infected cells; for target (unweighted spectral count, OC43 Probe II capture): tested against no-probe control, FDR<10%; for target (spectral count) / background (spectral count): type s_36_m, Probe II; for target (spectral count): HCoV-OC43-infected HCT-8 cells; for background (spectral count): uninfected-probe control

Molecule | target (spectral count, OC43 Probe I RNP capture) (gRNA of HCoV-OC43) | background (spectral count, no-probe control) (gRNA of HCoV-OC43) | target (unweighted spectral count, OC43 Probe II) (HCoV-OC43 gRNA and sgRNA) | background (unweighted spectral count, no-probe control) (HCoV-OC43 gRNA and sgRNA) | target (spectral count) (gRNA of HCoV-OC43) | background (spectral count) (gRNA of HCoV-OC43) | target (unweighted spectral count, OC43 Probe II capture) (HCoV-OC43 gRNA and sgRNA; 24 hpi, type n_24_v) | target (unweighted spectral count, OC43 Probe II capture) (HCoV-OC43 gRNA and sgRNA; 36 hpi, type n_36_v) | target (spectral count) (HCoV-OC43 gRNA and sgRNA; 36 hpi) | background (spectral count) (HCoV-OC43 gRNA and sgRNA; 36 hpi)
B1 | 5 | 1 | 5 | 1 | – | – | – | – | – | –
B2 | 17 | 5 | 32 | 5 | 22 | 1 | 10 | 16 | 16 | 1
B3 | – | – | – | – | 12 | 1 | 4 | 7 | 7 | 1
B4 | 5 | 1 | 5 | 1 | – | – | – | – | – | –
